From paper PMC12678314, “Redox regulation of glutamate-1-semialdehyde aminotransferase modulates the synthesis of 5-aminolevulinic acid in Arabidopsis” (Frontiers in Plant Science, 2025)

Biological target: the molecule itself
Assay: native gel or EMSA; purified His-GSAATAt (300 µM), no pretreatment, non-reducing/non-denaturing polyacrylamide gel; dimer to monomers

B1: recombinant His-tagged Arabidopsis glutamate-1-semialdehyde aminotransferase 1, wild type (enzyme)
chain: not shown
notes: Arabidopsis thaliana GSAAT1 (AtGSA1, AT5G63570), mature protein without the transit peptide 1-38 according to UniProt P42799; pET-28a(+); the methods remove 1-38; also called His-GSAAT; His-GSAATAt; source: E. coli Rosetta, purified (Ni-NTA); not shown: His6, N-terminal, kept
  stoichiometry N: 2
